Test results taken from US20110144312A1 (Kyowa Kirin, published 2011).

T1: mouse IL-10Rα on splenocytes (mouse, UniProt Q61727 17-575)
T1 construct: whole, on cells
T1 sequence (looked up): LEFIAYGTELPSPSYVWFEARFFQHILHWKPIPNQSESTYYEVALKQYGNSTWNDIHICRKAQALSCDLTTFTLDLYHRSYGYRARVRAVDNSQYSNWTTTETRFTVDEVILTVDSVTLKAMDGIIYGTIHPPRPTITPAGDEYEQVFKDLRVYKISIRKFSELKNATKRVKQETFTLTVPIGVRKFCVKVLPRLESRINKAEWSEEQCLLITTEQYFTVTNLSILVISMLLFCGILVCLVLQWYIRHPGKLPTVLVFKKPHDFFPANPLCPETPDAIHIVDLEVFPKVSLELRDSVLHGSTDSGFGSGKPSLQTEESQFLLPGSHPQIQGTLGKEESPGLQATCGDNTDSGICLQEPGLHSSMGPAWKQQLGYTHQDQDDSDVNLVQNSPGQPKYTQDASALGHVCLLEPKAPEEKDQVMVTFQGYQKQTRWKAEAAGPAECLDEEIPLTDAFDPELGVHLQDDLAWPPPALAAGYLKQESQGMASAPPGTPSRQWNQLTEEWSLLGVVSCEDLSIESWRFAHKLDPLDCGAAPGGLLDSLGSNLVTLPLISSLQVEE

T2: human IL-10Rα on cells (human, UniProt Q13651 22-578)
T2 construct: Full-length entry with signal peptide; endogenous on PBMC and RPMI-8226 cells, transfected in EL-4 and CHO-K1 cells; also called IL-10R on RPMI-8226 cells; IL-10Rα on human PBMC, lymphocytes and monocytes
T2 sequence: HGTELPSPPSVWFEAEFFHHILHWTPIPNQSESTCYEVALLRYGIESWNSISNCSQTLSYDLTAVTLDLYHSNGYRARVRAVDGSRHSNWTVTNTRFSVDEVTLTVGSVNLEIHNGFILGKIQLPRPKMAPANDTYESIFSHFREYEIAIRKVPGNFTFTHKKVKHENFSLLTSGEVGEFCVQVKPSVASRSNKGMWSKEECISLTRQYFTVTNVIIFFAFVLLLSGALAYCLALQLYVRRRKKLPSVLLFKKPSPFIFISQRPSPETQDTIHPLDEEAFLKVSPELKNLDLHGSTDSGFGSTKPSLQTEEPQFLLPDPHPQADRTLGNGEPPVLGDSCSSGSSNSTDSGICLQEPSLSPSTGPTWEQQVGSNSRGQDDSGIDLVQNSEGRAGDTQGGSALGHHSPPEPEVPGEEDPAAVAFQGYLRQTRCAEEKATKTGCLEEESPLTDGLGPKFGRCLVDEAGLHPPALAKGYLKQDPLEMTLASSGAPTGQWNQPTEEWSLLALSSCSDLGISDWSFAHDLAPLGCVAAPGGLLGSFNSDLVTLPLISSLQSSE


Legend:
[1] = target: T3, human IL-10Rα extracellular domain fused to the Fc portion of human IgG1 (human); assay: ELISA, coated human IL-10Rα:hFc
T3 construct: also called hIL-10Rα:hFc; human IL-10Rα:hFc
From the text: (§1) FIGS. 2A-2B show relative binding affinity of anti-human IL-10R antibodies for human IL-10Rα. A) Titration of anti-IL-10Rα antibodies binding to coated human IL-10Rα:hFc. Binding was detected with anti-human kappa-HRP, anti-mouse IgG-HRP, or anti-rat IgG-HRP. […] RPMI-8226 cells were labeled with anti-human IL-10Rα antibodies at various concentrations and detected with anti-human IgG-PE. The commercial rat anti-human IL-10Rα antibody 3F9 was detected with anti-rat IgG-PE. The geometric mean fluorescence intensity (geo mean) data are shown.
IL-10Rα Specific Antibody Detection ELISA: Antibody titers, specificity, and production by hybridomas were determined by ELISA. In brief, 96 well flat bottom Maxisorb plates were coated with 50 μl of hIL-10Rα (R&D Systems, Minneapolis, Minn.) at 1 μg/ml in carbonate buffer (pH 9.4) overnight at 4° C. or at 37° C. for 1 hour. After washing three times with PBS/0.05% Tween 20, plates were blocked with Superblock blocking buffer in TBS (Pierce) at room temperature for 30 minutes. […] The reaction was stopped with H₂SO₄ (LabChem) and the optical density was measured at 450 nm by a microplate reader. […] In this assay, binding of specific human IgG were detected with a peroxidase labeled sheep anti-human kappa antibody (The Binding Site, Birmingham, UK).

[2] = target: T1, mouse IL-10Rα on splenocytes; assay: flow cytometry on splenocytes
[3] = target: T2, human IL-10Rα on cells; assay: flow cytometry on RPMI-8226 cells; detection anti-human IgG-PE [B]
From the text: as §1, with “A)” for “FIGS. 2A-2B show relative binding affinity of anti-human IL-10R antibodies for human IL-10Rα. A)”
The cells were washed once in staining buffer: PBS+2% FBS+0.01% NaN₃+10 mM EDTA, then blocked with 20 μg/ml rabbit IgG (Jackson Immunoresearch), resuspended in serum, supernatant, purified anti-human IL-10Rα antibodies, or isotype control antibodies in a final volume of 50 μl. The cells were incubated with the antibodies on ice for 20 minutes, washed twice in staining buffer then resuspended in an anti-human IgG secondary antibody for 20 minutes. […] If the biotinylated antibody was used, antibody binding was detected by labeling with streptavidin-phycoerythrin (SA-PE) for 20 minutes. Binding of rat and mouse anti-hIL-10Rα antibodies were detected with either biotinylated or PE conjugated anti-rat or anti-mouse IgG antibodies from multiple sources (Jackson Immunoresearch; Southern Biotech Associates; and BD Pharmingen, San Diego, Calif.). […]

fold higher relative binding affinity than 37607 [1] [fold] | binding result [2] | EC50 (read off the curve) [3] [µg/mL] | Binder
~3 | no binding | ~0.5 | 136C5 (antibody, V domains shown, Hybridoma antibody, human IgG1, kappa light chain; also called human anti-human IL-10Rα monoclonal antibody 136C5; hybridoma deposit PTA-9131) VH: EVQLVESGGGLVQPGGSLRLSCAASGFTFSSYSMNWVRQAPGKGLEWVSYISTGSSTIYYADSVKGRFTISRDNAKNSLYLQMNSLRDEDTAVYYCARENYYGSGSYEDYFDYWGQGTLVTVSS VL: EIVLTQSPATLSLSPGERATLSCRASQSVSSYLAWYQQKPGQAPRLLIYDASNRATGIPARFSGSGSGTDFTLTISSLEPEDFAVYYCQQRSNWPIFTFGPGTKVDIK
~3 | no binding | ~0.5 | 136C8 (antibody, V domains shown, Hybridoma antibody, human IgG2, kappa light chain; also called human anti-human IL-10Rα monoclonal antibody 136C8; hybridoma deposit PTA-9132) VH: EVQLVESGGGLVQPGGSLRLSCAASGFTFSSYSMNWVRQAPGKGLEWVSYISTRSSTIYYADSVKGRFTISRDNAKNSLYLQMNSLRDEDTAVYYCARENYYGSGSYEDYFDYWGQGTLVTVSS VL: EIVLTQSPATLSLSPGERATLSCRASQSVSSYLAWYQQKPGQAPRLLIYDASNRATGIPARFSGSGSGTDFTLTISSLEPEDFAVYYCQQRSNWPIFTFGPGTKVDIK
